According to US20220125837A1, “METHODS FOR CONTROLLED ELIMINATION OF THERAPEUTIC CELLS” (Bellicum Pharmaceuticals, Inc., priority 2014, published 2022):
Substitutions are numbered along the chain they refer to. Names and notes keep the numbering of the source. “Also recorded” adds a separate entry of the source.

B1: D330A-N405Q: modified Caspase-9 polypeptide having a substitution at position 330 and a substitution at position 405 (protein, UniProt P55211 1-416, looked up, variant D330A N405Q)
chain: MDEADRRLLRRCRLRLVEELQVDQLWDALLSRELFRPHMIEDIQRAGSGSRRDQARQLIIDLETRGSQALPLFISCLEDTGQDMLASFLRTNRQAAKLSKPTLENLTPVVLRPEIRKPEVLRPETPRPVDIGSGGFGDVGALESLRGNADLAYILSMEPCGHCLIINNVNFCRESGLRTRTGSNIDCEKLRRRFSSLHFMVEVKGDLTAKKMVLALLELAQQDHGALDCCVVVILSHGCQASHLQFPGAVYGTDGCPVSVEKIVNIFNGTSCPSLGGKPKLFFIQACGGEQKDHGFEVASTSPEDESPGSNPEPDATPFQEGLRTFDQLAAISSLPTPSDIFVSYSTFPGFVSWRDPKSGSWYVETLDDIFEQWAHSEDLQSLLLRVANAVSVKGIYKQMPGCFQFLRKKLFFKTS
modifications: iCasp9, fused to FKBP12 F36V domain
B2: ^402GCFNF^406ISAQT: Caspase-9 polypeptide with the equivalent 5 residues from Caspase-10 (protein, UniProt P55211 1-416, looked up, variant G402I C403S F404A N405Q F406T)
chain: B1 chain with A330D, G402I, C403S, F404A, F406T
B3: F319A: chimeric modified Caspase-9 polypeptide (protein, UniProt P55211 1-416, looked up, variant F319A)
chain: B1 chain with F319A, A330D, Q405N
modifications: fused to FKBP12 F36V dimerization domain
notes: chimeric modified Caspase-9 polypeptide
B4: N405F: chimeric modified Caspase-9 polypeptide (protein, UniProt P55211 1-416, looked up, variant N405F)
chain: B1 chain with A330D, Q405F
modifications: fused to FKBP12 F36V dimerization domain
notes: as for B3
B5: D327G: chimeric modified Caspase-9 polypeptide (protein)
chain: VDGFGDVGALESLRGNADLAYILSMEPCGHCLIINNVNFCRESGLRTRTGSNIDCEKLRRRFSSLHFMVEVKGDLTAKKMVLALLELARQDHGALDCCVVVILSHGCQASHLQFPGAVYGTDGCPVSVEKIVNIFNGTSCPSLGGKPKLFFIQACGGEQKDHGFEVASTSPEDESPGSNPEPDATPFQEGLRTFGQLDAISSLPTPSDIFVSYSTFPGFVSWRDPKSGSWYVETLDDIFEQWAHSEDLQSLLLRVANAVSVKGIYKQMPGCFNFLRKKLFFKTSASRA
B6: D327R: chimeric modified Caspase-9 polypeptide (protein)
chain: B5 chain with G195R
B7: T317A: chimeric modified Caspase-9 polypeptide (protein)
chain: B5 chain with T185A, G195D
B8: T317C: chimeric modified Caspase-9 polypeptide (protein)
chain: B5 chain with T185C, G195D
B9: D327K: chimeric modified Caspase-9 polypeptide (protein)
chain: B5 chain with G195K
B10: F326K: chimeric modified Caspase-9 polypeptide (protein)
chain: B5 chain with F194K, G195D
B11: A316G: chimeric modified Caspase-9 polypeptide (protein)
chain: B5 chain with A184G, G195D
B12: L329G: chimeric modified Caspase-9 polypeptide (protein)
chain: B5 chain with G195D, L197G
B13: L329K: chimeric modified Caspase-9 polypeptide (protein)
chain: B5 chain with G195D, L197K
B14: A331K: chimeric modified Caspase-9 polypeptide (protein)
chain: B5 chain with G195D, A199K
B15: Q328R: chimeric modified Caspase-9 polypeptide (protein)
chain: B5 chain with G195D, Q196R
B16: Q328K: chimeric modified Caspase-9 polypeptide (protein)
chain: B5 chain with G195D, Q196K

System: HEK293T/16 cells
Assay: Secreted alkaline phosphatase (SEAP) surrogate killing assay of iCasp9 mutants
Assay type: cell-based, human
Conditions: for relative SEAP activity Units (basal activity): no AP1903; for basal activity, in words: SEAP assay without AP1903, relative to wild type Caspase-9
Experimental: Early passage HEK293T/16 cells (ATCC, Manassas, Va.) were maintained in IMDM, GlutaMAX™ (Life Technologies, Carlsbad, Calif.) supplemented with 10% FBS, 100 U/mL penicillin, and 100 U/mL streptomycin until transfection in a humidified, 37° C., 5% CO2/95% air atmosphere. Cells in logarithmic-phase growth were transiently transfected with 800 ng to 2 μg of expression plasmid encoding iCasp9 mutants and 500 ng of an expression plasmid encoding SRα promoter driven SEAP per million cells in 15-mL conical tubes. […] GeneJammer® Transfection Reagent at a ratio of 3 μl per ug of plasmid DNA was used to transiently transfect HEK293T/16 cells in the absence of antibiotics. 100 μl or 2 mL of the transfection mixture was added to each well in 96-well or 6-well plate, respectively.
Briefly, after 65° C. heat denaturation for 45 minutes to reduce background caused by endogenous (and serum-derived) alkaline phosphatases that are sensitive to heat, 5 μl of supernatants was added to 95 μl of PBS and added to 100 μl of substrate buffer, containing 1 μl of 100 mM 4-methylumbelliferyl phosphate (4-MUP; Sigma, St. Louis, Mo.) re-suspended in 2 M diethanolamine. Hydrolysis of 4-MUP by SEAP produces a fluorescent substrate with excitation/emission (355/460 nm), which can be easily measured. […] 1000-ul of the mixture was seeded onto each well of a 96-well plate. […] For the assay, 4-methylumbelliferyl phosphate substrate was hydrolyzed by SEAP to 4-methylumbelliferon, a metabolite that can be excited with 364 nm and detected with an emission filter of 448 nm. Since SEAP is used as a marker for cell viability, reduced SEAP reading corresponds with increased iCaspase-9 activities.

Row | Molecule | basal activity, in words | also measured
1 | B1 | intermediate | relative SEAP activity Units (basal activity) (1 μg iCasp9 per million cells, higher SEAP = lower basal activity): 205772; relative SEAP activity Units (basal activity) (2 μg iCasp9 per million cells): 174366; basal activity, in words (listed as iCasp9 D330A N405Q): low to undetectable basal activity
2 | B2 | reduced basal activity | 
3 | B3 | no effect | 
4 | B4 | lowered basal activity | 
5 | B5 | did not lower basal activity | 
6 | B6 | did not lower basal activity | 
7 | B7 | lower basal activity; also recorded: reduce basal activity | 
8 | B8 | no effect | 
9 | B9 | did not lower basal activity | 
10 | B10 | did not lower basal activity | 
11 | B11 | lower basal activity | 
12 | B12 | did not lower basal activity | 
13 | B13 | did not lower basal activity | 
14 | B14 | did not lower basal activity | 
15 | B15 | did not lower basal activity | 
16 | B16 | did not lower basal activity | 
